Legend:
重组表达的PSMA胞外区蛋白 = target: T1, 重组表达的PSMA胞外区蛋白 (UniProt Q04609 44-750, limits assumed); experiment: indirect phage-ELISA, PSMA extracellular domain coated at 5 μg/mL, HRP-anti-M13 detection
T1 construct: extracellular domain; also called 前列腺特异性膜抗原膜外区; PSMA蛋白; not shown: His tag (purified on HisTrap, detected with anti-His antibody)

[1] = target: T2, 前列腺特异性膜抗原 (PSMA) on LNCaP cells (UniProt Q04609 1-750, limits assumed); experiment: cell ELISA (HRP-anti-M13) and immunofluorescence on fixed LNCaP cells, with PSMA-negative MKN45 cells as comparison
T2 construct: whole, on cells; also called LNCaP细胞(表达PSMA)
T2 sequence (Q04609 whole entry): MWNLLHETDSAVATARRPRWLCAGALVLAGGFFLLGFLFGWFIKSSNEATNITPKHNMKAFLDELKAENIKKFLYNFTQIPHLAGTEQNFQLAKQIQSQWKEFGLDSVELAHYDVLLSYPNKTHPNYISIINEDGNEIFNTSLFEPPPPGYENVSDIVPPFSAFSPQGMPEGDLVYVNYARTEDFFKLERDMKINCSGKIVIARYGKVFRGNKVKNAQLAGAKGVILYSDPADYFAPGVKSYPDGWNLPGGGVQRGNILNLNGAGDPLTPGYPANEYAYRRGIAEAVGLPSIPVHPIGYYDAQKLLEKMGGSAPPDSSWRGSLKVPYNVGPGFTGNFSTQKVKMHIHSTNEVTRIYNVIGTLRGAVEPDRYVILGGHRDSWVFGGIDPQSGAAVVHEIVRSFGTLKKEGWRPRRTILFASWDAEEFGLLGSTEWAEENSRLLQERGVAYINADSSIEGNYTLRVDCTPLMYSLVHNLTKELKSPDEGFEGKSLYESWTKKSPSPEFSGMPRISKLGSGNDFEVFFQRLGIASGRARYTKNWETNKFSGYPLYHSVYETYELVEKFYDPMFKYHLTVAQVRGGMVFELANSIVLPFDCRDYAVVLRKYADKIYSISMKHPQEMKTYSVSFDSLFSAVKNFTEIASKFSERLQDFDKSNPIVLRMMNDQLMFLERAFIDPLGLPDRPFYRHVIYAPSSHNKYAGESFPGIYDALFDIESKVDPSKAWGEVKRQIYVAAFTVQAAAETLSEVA

T1 sequence (Q04609 44-750 limits assumed): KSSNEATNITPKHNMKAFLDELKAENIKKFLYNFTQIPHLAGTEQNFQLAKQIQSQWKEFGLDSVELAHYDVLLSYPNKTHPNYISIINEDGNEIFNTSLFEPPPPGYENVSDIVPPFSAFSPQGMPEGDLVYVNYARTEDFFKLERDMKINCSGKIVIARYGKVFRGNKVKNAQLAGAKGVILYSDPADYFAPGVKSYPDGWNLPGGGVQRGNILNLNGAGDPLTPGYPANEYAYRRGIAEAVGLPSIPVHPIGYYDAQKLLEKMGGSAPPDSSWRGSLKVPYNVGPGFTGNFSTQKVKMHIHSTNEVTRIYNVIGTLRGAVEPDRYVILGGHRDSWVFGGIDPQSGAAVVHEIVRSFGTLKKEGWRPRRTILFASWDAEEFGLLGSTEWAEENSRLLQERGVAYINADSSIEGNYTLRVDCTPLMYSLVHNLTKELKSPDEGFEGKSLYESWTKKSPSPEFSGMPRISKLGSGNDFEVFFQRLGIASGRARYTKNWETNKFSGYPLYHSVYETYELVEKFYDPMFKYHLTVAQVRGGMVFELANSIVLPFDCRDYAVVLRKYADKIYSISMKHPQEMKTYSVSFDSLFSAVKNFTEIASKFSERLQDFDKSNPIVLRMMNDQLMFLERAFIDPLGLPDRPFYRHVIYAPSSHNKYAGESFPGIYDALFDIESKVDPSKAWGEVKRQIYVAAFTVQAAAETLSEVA

B1: 抗前列腺特异性膜抗原单域重链抗体噬菌体阳性克隆 (VHH)
VHH: QLQLVESGGGLVQPGGSLRLTCTTSGFSLRYHDIGWFRQAPGKEREGVSCITGSLGDPYVDESLQGRFTISRDDHKNMVYLRMNSLKSEDTALYYCAIVRGCKDHDAYADVRARGQGTQVTVSS
notes: also called 针对前列腺特异性膜抗原的单域重链抗体阳性克隆; 展示本发明所述纳米抗体的噬菌体克隆; not shown: the fusion to the phage coat protein is not described
binding result (重组表达的PSMA胞外区蛋白): binds
binding result [1]: binds

Reference: patent publication CN105542008A (UNIV NANCHANG, dated 2016)
